# Source: patent US9926375B2, “Anti-endoglin antibodies and uses thereof” (Tracon Pharmaceuticals, Inc., priority 2014, dated 2018)
# T1: mouse endoglin (Mus musculus, UniProt Q63961)
# T1 construct: purchased R&D Systems 1320-EN-025
# T1 sequence (Q63961 27-581 limits assumed): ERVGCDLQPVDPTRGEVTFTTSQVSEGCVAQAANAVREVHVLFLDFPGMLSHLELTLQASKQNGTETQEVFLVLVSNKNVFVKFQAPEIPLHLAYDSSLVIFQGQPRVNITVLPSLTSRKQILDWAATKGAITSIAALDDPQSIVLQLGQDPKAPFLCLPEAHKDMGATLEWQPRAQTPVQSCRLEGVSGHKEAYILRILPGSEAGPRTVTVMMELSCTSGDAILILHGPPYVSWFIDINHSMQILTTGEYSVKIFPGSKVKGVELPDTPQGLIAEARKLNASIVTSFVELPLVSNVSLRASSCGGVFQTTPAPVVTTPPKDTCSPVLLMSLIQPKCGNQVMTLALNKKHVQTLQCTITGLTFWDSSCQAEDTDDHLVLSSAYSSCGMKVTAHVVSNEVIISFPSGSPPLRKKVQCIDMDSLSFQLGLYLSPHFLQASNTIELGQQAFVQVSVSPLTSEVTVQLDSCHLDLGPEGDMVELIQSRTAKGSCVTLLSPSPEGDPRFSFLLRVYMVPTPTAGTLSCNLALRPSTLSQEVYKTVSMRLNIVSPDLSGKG
# Assays:
# [1] = tested on: BLM-induced pulmonary fibrosis model mice; assay: Bleomycin-induced pulmonary fibrosis model; assay type: in vivo, mouse; details: vs isotype-control antibody group (isotype-control vs disease control group); day 21; Bonferroni, P<0.05
# Description: Pathogen-free 7 weeks old female C57BL/6J mice were obtained from Japan SLC, Inc. (Japan). At day 0, 60 mice were induced to develop pulmonary fibrosis by a single intratracheal administration of bleomycin sulphate (BLM, Nippon Kayaku, Japan) in saline at a dose of 3 mg/kg, in a volume of 50 μL per animal using Microsprayer® (Penn-Century, USA).
# BLM-induced pulmonary fibrosis model mice were randomized into 4 groups of 12 mice based on the body weight on the day before the start of treatment.
# Group 3 (M1043 Antibody): Twelve BLM-induced pulmonary fibrosis model mice were intravenously administered vehicle supplemented with M1043 at a dose of 10 mg/kg twice weekly at day 7, 10, 14 and 17.
# Group 4 (TRC105 human/mouse chimeric antibody): Twelve BLM-induced pulmonary fibrosis model mice were intravenously administered vehicle supplemented with TRC105 at a dose of 10 mg/kg twice weekly at day 7, 10, 14 and 17.
# Group 5 (BIBF1120 inhibitor for Idiopathic Pulmonary Fibrosis—positive control, Boehringer Ingelheim): Twelve BLM-induced pulmonary fibrosis model mice were orally administered 1% CMC supplemented with BIBF1120 at a dose of 100 mg/kg once daily from day 7 to 21. […]
# Histological analysis of lung sections was conducted by practitioners who are not aware of the Group identity. Masson's Trichrome staining is conducted and an Ashcroft Score estimate was determined. […]
# [2] = biological target: T1, mouse endoglin; assay: ELISA binding of M1043 antibody to mouse endoglin; details: 10 μg/ml to 0.014 μg/ml; plate coated with mouse endoglin 1 μg/ml
# Description: An ELISA was established to determine the binding of M1043 antibody to mouse endoglin as follows: Nunc Immuno MaxiSorp 96 well flat bottom plates (Fisher, Cat. No. DIS-971-030J) were coated with mouse endoglin (R&D Systems, Cat. No. 1320-EN-025) at 1 μg/ml in PBS overnight at 4° C. The following day the plate was washed three times with PBST before blocking with PBST/3% Marvel at room temperature for 1 hour. After blocking, the plate was washed three times with PBST, and varying concentrations (10 μg/ml to 0.014 μg/ml in three-fold serial dilutions) of either M1043 or an irrelevant rat IgG1 (Affymetrix, Cat. No. 14-4301) in PBST/3% Marvel were added to the plate and incubated for 1 hour at room temperature. Binding of the antibodies was detected via anti-rat IgG peroxidase (Sigma, Cat. No. A9037) and TMB single solution substrate (Invitrogen, Cat. No. 00-2023). The reaction was stopped by adding 3 M HCl and OD450 nm values were measured on a Dynex MRX TCII plate reader.
molecule,measurement,setting,value
"M1043: rat IgG1 antibody that binds mouse endoglin and competitively inhibits mouse BMP binding; VH SEQ ID NO: 124, VL SEQ ID NO: 125 (antibody, V domains shown) VH: QVQLQQSGAELVKPGSSVKISCKASGYTFTSYDMHWIKQQPGNGLEWIGWIYPGNGNTKYNQKFNGKATLTADKSSSTAYMQLSSLTSEDSAVYFCARGKFGVGDYWGQGVMVTVSS VL: DTVLTQSPALAVSPGERVSISCRASEGVNSYMHWYQQKPGQQPKLLIYIASNLASGVPARFSGSGSGTDFTLTIDPVEADDTATYFCQQSWNDPYTFGAGTKLELKR","Ashcroft score, comparison between groups",[1],no significant difference
same,Binding to mouse endoglin (ELISA),[2],binds specifically to mouse endoglin
